Some targets named below: Biotinylated CCL21 (UniProt O00585); CCL2 (UniProt P13500); CCL7 (UniProt P80098).
The target of assay [1] is Link_TSG6 (recombinant Link module from human TSG-6) (human) (UniProt P98066). Briefly: SPR; Link_TSG6 amine-coupled to a C1 chip (800–1000 RU), chemokine as analyte; BIAcore 3000; 10 mM HEPES, 150 mM NaCl, 0.05% Tween 20, pH 7.4; 40 μl/min; 1:1 Langmuir model; apparent affinities. A general note: In SPR one partner is held on a chip, and binding of the other changes the refractive index at the surface.
Chain of Link_TSG6 (recombinant Link module from human TSG-6) (human) (P98066 36-133): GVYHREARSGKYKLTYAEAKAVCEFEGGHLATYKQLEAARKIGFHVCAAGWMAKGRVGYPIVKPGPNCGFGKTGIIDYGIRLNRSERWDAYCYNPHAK

Chain of Link_TSG6 (recombinant Link module from human TSG-6) (P98066 36-133): as above
Chain of Biotinylated CCL21 (O00585 24-134): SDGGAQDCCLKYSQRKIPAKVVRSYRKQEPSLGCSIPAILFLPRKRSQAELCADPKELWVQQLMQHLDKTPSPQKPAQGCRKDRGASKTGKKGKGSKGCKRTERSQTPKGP
Chain of CCL2 (P13500 24-99): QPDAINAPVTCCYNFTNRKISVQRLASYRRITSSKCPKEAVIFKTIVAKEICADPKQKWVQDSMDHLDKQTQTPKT
Chain of CCL7 (P80098 24-99): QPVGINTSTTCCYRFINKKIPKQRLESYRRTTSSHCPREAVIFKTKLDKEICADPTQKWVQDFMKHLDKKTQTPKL

Regarding CXCL4 (ligand), in assay [1], the Kd is 3.9 nM, the koff came out at 0.0014 s⁻¹ and the association rate constant (kon) was found to be 360000 M⁻¹ s⁻¹.

Turning to “Link_TSG6 (recombinant Link module from human TSG-6) (from UniProt P98066 36-133) (domain or fragment)”, the accumulation of biotinylated CCL21 (50 nM) on EaHY926 endothelial cells after pre-incubation with Link TSG6 at a 1:1 molar ratio (% of chemokine alone) with Biotinylated CCL21 came out at 50. In addition, the accumulation of biotinylated CXCL4 (10 nM) on EaHY926 endothelial cells after pre-incubation with a 5-fold molar excess of Link TSG6 (% of chemokine alone) with Biotinylated CXCL4 was 51. Further, in the assay with CCL2, the accumulation of CCL2 (50 nM) on EaHY926 endothelial cells after pre-incubation with Link TSG6 at 1:1 to 5:1 molar ratio (∼75 to ∼55% of chemokine alone) (% of chemokine alone) was 75. Moreover, the accumulation of CCL7 (50 nM) on EaHY926 endothelial cells after pre-incubation with Link TSG6 at a 1:1 molar ratio (% of chemokine alone) with CCL7 amounted to 50.

By koff is commonly meant the rate constant with which the complex falls apart. As usually defined, the kon is the rate constant with which the complex forms.

The values above are taken from publication PMC4933465.
